The values below are quoted from earlier work in paper PMC7990104.

Data set [1] deals with PYL3 (Arabidopsis thaliana) (UniProt Q9SSM7).
The target is the same in data set [2]. This is another data set of the same source.

pKd: −log10 of the molar value. Like-named read-outs stand apart in the source and are kept apart here.

For PYL3 (from UniProt Q9SSM7), the figures for the pKd in data set [1] and in data set [2] were 5.11 and 4.28, respectively.
